# Assays:
# [1] = test system: Grape GT; experiment: Substrate specificity of the purified recombinant Grape GT, HPLC analysis of glucose ester formation; format: biochemical, Vitis sp.; conditions: relative to pHBA = 100, 10 mM test substrate, 0.0467 μM purified Grape GT, 15 min, 25° C.
# Protocol: To rule out the possibility that the Grape GT can also attach glucose to the hydroxyl group of pHBA, the products of the in vitro enzyme reaction were directly analyzed by reverse phase HPLC. […] Following a 1-min incubation period at 25° C., the reactions were terminated by the addition of an equal volume of 0.2 N HCl. […] The column was developed at 1 mL/min with a linear gradient of 10–50% Buffer B that was generated over a 20-min period, and absorbance was monitored at 254 nm. […] To test this hypothesis, Applicants' decided to examine the substrate specificity of the Grape GT in greater detail. […] Following a 15-min incubation period at 25° C., the reactions were quenched with an equal volume of 0.3 M HCl and the entire reaction mixture was analyzed by HPLC as described above in Example 6. The products of the various reactions were identified using authentic chemical standards. The retention times and extinction coefficients of these compounds were determined using the same column conditions. […] Regardless of substrate, the purified recombinant Grape GT only catalyzed the formation of glucose esters, which in all cases co-migrated precisely with the authentic compounds. […] Since the glucose ester of the latter compound is the precursor for the synthesis of simple and complex tannins that are extremely abundant in grapes, it is possible that gallic acid is a physiological substrate of the Grape GT. The data shown in Table 3 make it clear that although the Grape GT glucosylated mHBA (3-hydroxybenzoic […]) at a reasonable rate, product formation with oHBA (2-hydroxybenzoic acid) was not observed.
# [2] = test system: Arabidopsis thaliana glucosyltransferase UGT84A1 (84A1, GT 3, SEQ ID NO:8); conditions: 20° C., pH 6; calculated from Vmax of Lim et al. 2001; cited from earlier work
# [3] = Continuous spectrophotometric UDP-glucosyltransferase assay, formation of glucose ester of sinapic acid at 368 nm, E. coli cell-free extracts; format: biochemical; conditions: crude extract, 10 mM UDP-glucose, pH 7.3, 25° C.
# Protocol: (§1) For protein production, the resulting recombinant strains were grown at 22° C. in 50 mL of LB media that contained kanamycin (50 μg/mL). At an A600 nm of ˜0.6, isopropyl-1-thio-β-D-galactopyranoside was added to a final concentration of 0.2 mM. Following a 22-h induction period at the same temperature, the cells were harvested by centrifugation and stored at −80° C. for subsequent manipulation as described below.
# (§2) The frozen cell pellets were resuspended in 1.0 mL of a solution containing 100 mM Tris-HCl (pH 7.7), 5 mM MgSO4, 1 mM dithiothreitol, 0.03 mg/mL DNAse I, 0.5 mM phenylmethanesulfonyl fluoride, and passed once through a French pressure cell at 20,000 psi. Debris was removed by centrifugation (43,000×g, 60 min), and the resulting cell-free extracts, containing ˜15 mg of protein per mL, were supplemented with 5% glycerol and stored at −80° C. for subsequent measurements of enzyme activities. Protein concentrations were determined by the Bradford Method using bovine serum albumin as a standard.
# (§3) The second assay is based on the increase in absorbance at 368 nm that accompanies the formation of the glucose ester of sinapic acid. The experimental conditions were the same as those described above, but the test substrate was sinapic acid and product formation was calculated using an extinction coefficient of 5,570 M^−1 that was obtained with the authentic chemically synthesized compound under identical conditions.
# [4] = Continuous spectrophotometric UDP-glucosyltransferase assay, formation of pHBA glucose ester at 304 nm, E. coli cell-free extracts; format: biochemical; conditions: crude extract, 10 mM UDP-glucose, pH 7.3, 25° C.
# Protocol: as §1, §2
# [5] = Ratio of enzyme activity with pHBA versus sinapic acid (spectrophotometric assays); format: biochemical; conditions: for pHBA/SA ratio of enzyme activity: crude extract
# Protocol: as §3
molecule,measurement,setting,value
"O=C(O)/C=C/c1ccc(O)c(O)c1 [Caffeic acid, caffeic acid]",Relative Rate of product formation,[1],25
"COc1cc(/C=C/C(=O)O)ccc1O [Ferrulic acid, ferrulic acid]",Relative Rate of product formation,[1],16
"O=C(O)c1cc(O)c(O)c(O)c1 [Gallic acid, 3,4,5-trihydoxybenzoic acid]",Relative Rate of product formation,[1],64
"O=C(O)c1cccc(O)c1 [MHBA, m-Hydroxybenzoic acid]",Relative Rate of product formation,[1],47
"O=C(O)c1ccccc1O [OHBA, o-Hydroxybenzoic acid]",Relative Rate of product formation,[1],0
"O=C(O)C=Cc1ccc(O)cc1 [PHCA, 4-hydroxycinnamic acid]",Relative Rate of product formation,[1],56
COc1cc(/C=C/C(=O)O)cc(OC)c1O [Sinapic acid],Relative Rate of product formation,[1],10
O=C(O)/C=C/c1ccc(O)cc1 [p-hydroxycinnamic acid],turnover number with p-hydroxycinnamic acid,[2],~0.70 s⁻¹
"GT 5: Arabidopsis UDP-glucosyltransferase, GenBank AL161541.2, SEQ ID NO:16 (protein, listed as Arabidopsis thaliana) MKMESSLPHVMLVSFPGQGHISPLLRLGKIIASKGLIVTFVTTEEPLGKKMRQANNIQDGVLKPVGLGFLRFEFFEDGFVYKEDFDLLQKSLEVSGKREIKNLVKKYEKQPVRCLINNAFVPWVCDIAEELQIPSAVLWVQSCACLAAYYYYHHQLVKFPTETEPEITVDVPFKPLTLKHDEIPSFLHPSSPLSSIGGTILEQIKRLHKPFSVLIETFQELEKDTIDHMSQLCPQVNFNPIGPLFTMAKTIRSDIKGDISKPDSDCIEWLDSREPSSVVYISFGTLAFLKQNQIDEIAHGILNSGLSCLWVLRPPLEGLAIEPHVLPLELEEKGKIVEWCQQEKVLAHPAVACFLSHCGWNSTMEALTSGVPVICFPQWGDQVTNAVYMIDVFKTGLRLSRGASDERIVPREEVAERLLEATVGEKAVELRENARRWKEEAESAVAYGGTSERNFQEFVDKLVDVKTMTNINNVV","initial rate of product formation, 1 mM SA",[3]; 1 mM sinapic acid,5.18 μM per min
same,"initial rate of product formation, 5 mM SA",[3]; 5 mM sinapic acid,9.2 μM per min
same,"initial rate of product formation, 10 mM SA",[3]; 10 mM sinapic acid,5.9 μM per min
same,"initial rate of product formation, 1 mM pHBA",[4]; 1 mM pHBA,0.23 μM per min
same,"initial rate of product formation, 5 mM pHBA",[4]; 5 mM pHBA,0.45 μM per min
same,"initial rate of product formation, 10 mM pHBA",[4]; 10 mM pHBA,0.83 μM per min
same,Ratio of Activity pHBA/SA,"[5]; Table 4, cell-free extracts, 10 mM pHBA or sinapic acid, 25° C.",0.141
same,pHBA/SA ratio of enzyme activity,[5]; 1 mM substrate,0.044
same,pHBA/SA ratio of enzyme activity,[5]; 5 mM substrate,0.049
same,pHBA/SA ratio of enzyme activity,[5]; 10 mM substrate,0.141

# Reference: patent publication US7135326B2, “UDP-glucosyltransferases” (E. I. du Pont de Nemours and Company, priority 2002, dated 2006)
